Experiment [1] concerns the target T1, CXC chemokine receptor 4 (CXCR4), human (human, UniProt P61073 1-352). As to the kind of experiment: cell-based or functional assay.
Experiment [2] deals with T1, CXC chemokine receptor 4 (CXCR4), human. As to the kind of experiment: flow cytometry (EasyCyte), IgG1 10 µg/ml on CCRF-CEM cells; PBS negative control 3.11. How it is done:
The natural CXCR4⁺ expressing cell line CCRF-CEM was harvested from the culture flasks, washed 2 times with PBS supplemented with 0.2% BSA and 0.09% NaN₃ buffer and aliquoted at 1×10⁵ cells per well into V-shaped 96-well plates (Greiner Bio-One, Frickenhausen, Germany). Cells were pelleted by centrifugation (400 g, 5 min) and then incubated for 60 min at 4° C. with 50 μl IgGs diluted to 10 μg/ml in PBS supplemented with 0.2% BSA and 0.09% NaN₃ buffer. The supernatants were aspirated after a centrifugation step at 400 g for 5 min and the cells were washed another two times with 100 μl PBS supplemented with 0.2% BSA and 0.09% NaN₃ each wash was followed by a centrifugation step (5 min at 400 g). After, the cells were stained for 30 minutes at 4° C. with 50 μl of rPE-conjugated Goat anti-human IgG (AbD Serotec) diluted to 5 μg/ml in with PBS supplemented with 0.2% BSA and 0.09% NaN₃ and incubated for 30 minutes at 4° C. The cells were washed again and re-suspended in 200 μl PBS with 0.2% BSA and 0.09% NaN₃ and transferred to a U-shaped 96-well plate (Corning) for flow cytometry using an EasyCyte device (Guava Technologies, Hayward, Calif., USA).
Background: A flow cytometer gives signals particle by particle.

For experiment [3] the target is unchanged. As to the kind of experiment: cell-based or functional assay. This is another data set of the same source.
The target in experiment [4] is T2, monkey (Macaca mulatta) CXCR4 (monkey (Macaca mulatta), UniProt P79394 1-352).
T2 construct: whole, on cells; also called monkey CXCR4; monkey antigen
As to the kind of experiment: EasyCyte flow cytometry on HEK293T/17 cells transiently transfected with Macaca mulatta CXCR4, Fugene without DNA as negative control; scFv level according to the example, amount not given. How it is done:
FACS-binding analyses (EasyCyte) were performed using HEK-293 cells transiently transfected with plasmids encoding either, mouse (Gene bank accession number BC031665) or monkey (Macaca mulatta) CXCR4 (NCBI Accession number NP_001036110). Two experiments were performed, one using a-cMyc and PE-labelled goat anti-mouse IgG antibody, the second using a directly conjugated RPE-c-Myc antibody for detection. In addition, cross-reactivity on IgG level was analysed. In the latter case, antibody binding was detected with PE-conjugated goat anti-human IgG antibody.

For experiment [5], the target named is T1, CXC chemokine receptor 4 (CXCR4), human. The experiment is described as follows: EasyCyte flow cytometry, IgG titration (12 points, three-fold) on Ramos cells naturally expressing CXCR4; RPE goat anti-human IgG detection.
Method: The cells were harvested from culture flasks, washed 2 times with PBS (350×g, 5 min, 4° C.) and resuspended in PBS containing 0.2% BSA and 0.09% NaN₃. 1×10⁵ cells per well were aliquoted into V-shaped 96-well plates (Greiner Bio-One, Frikenhausen, Germany). The cells were centrifuged (350×g, 5 min, 4° C.) and resuspended in 50 μl IgG (50 μg/ml) in PBS containing 0.2% BSA and 0.09% NaN₃. Titration was done in twelve points and three fold dilution. […] Cells were washed, resuspended in 200 μl PBS with 0.2% BSA and 0.09% NaN₃, and transferred to a U-shaped 96 well Costar (Corning, Schiphol-Rijik, The Netherlands) plate for flow cytometry using an Easy Cyte device (Guava Technologies, Hayward, Calif., USA).
Experiment [6] shares this target. As to the kind of experiment: EasyCyte flow cytometry, 0.5 µg scFv on 1x10^5 CXCR4-transfected versus non-transfected HEK293T cells; anti-cMyc and RPE goat anti-mouse IgG detection.
Method: The DT40+CXCR4, HEK293+CXCR4, DT40 and HEK293 cells were harvested from culture flasks, washed 2 times with PBS (400×g, 5 min, 4° C.) and resuspended in PBS containing 0.2% BSA and 0.09% NaN₃. 1×10⁵ cells per well were aliquoted into V-shaped 96-well plates (Greiner Bio-One, Frikenhausen, Germany). The cells were centrifuged (400×g, 5 min, 4° C.) and resuspended in 50 μl ScFvs (10 μg/ml) in PBS containing 0.2% BSA and 0.09% NaN₃. […] After 1 hour incubation (4° C.), the cells were washed three times with 100 μl PBS with 0.2% BSA and 0.09% NaN₃ and incubated for 30 minutes at 4° C. with RPE conjugated goat anti-mouse IgG (F0479, Dako, Denmark) diluted to 5 μg/ml in PBS with 0.2% BSA and 0.09% NaN₃. Cells were washed, resuspended in 200 μl PBS with 0.2% BSA and 0.09% NaN₃, and transferred to a U-shaped 96 well Costar (Corning, Schiphol-Rijik, The Netherlands) plate for flow cytometry using an Easy Cyte device (Guava Technologies, Hayward, Calif., USA).

T2 sequence (P79394 whole entry): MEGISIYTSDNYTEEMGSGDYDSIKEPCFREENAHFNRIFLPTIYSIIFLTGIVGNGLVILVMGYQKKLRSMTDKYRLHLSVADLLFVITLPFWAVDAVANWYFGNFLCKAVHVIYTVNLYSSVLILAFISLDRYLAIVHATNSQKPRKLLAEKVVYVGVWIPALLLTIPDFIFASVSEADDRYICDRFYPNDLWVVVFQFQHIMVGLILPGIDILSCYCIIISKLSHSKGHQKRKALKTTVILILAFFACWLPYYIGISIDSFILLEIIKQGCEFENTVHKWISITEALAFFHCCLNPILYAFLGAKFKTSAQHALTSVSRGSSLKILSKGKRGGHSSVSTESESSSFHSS
T1 sequence (P61073 whole entry): as the sequence (P79394 whole entry) above, with I24M, H35N, R38K, K146R, S176N, D214V counted along it

B1: D-1K21 IgG1 (antibody, V domains shown)
VH: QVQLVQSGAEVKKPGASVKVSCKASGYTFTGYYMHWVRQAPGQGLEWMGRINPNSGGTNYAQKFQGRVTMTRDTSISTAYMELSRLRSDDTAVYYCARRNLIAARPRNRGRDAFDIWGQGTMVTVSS
VL: DIQMTQSPSTLSASVGDRVTITCRASQSIGGSLAWYQQKPGKGPNLLIYAASTLQSGVPSRFSGSGSGTEFTLTISSLQPEDSATYYCQHYESYPLSFGGGTKLEIKR
notes: Full length human IgG1 with kappa light chain; expressed from pLNO, protein A purified, monomer by SEC; also called IgG D-1K21
With B1, in experiment [1], the “ADCC, EC50 (ng/mL), IgG” value was determined as 79.9 ng/mL; the “ADCC, EC50, IgG, molar” value came out at 0.5 nM; the “ADCC, Max killing (%), CCRF-CEM cells with human PBMCs, IgG” value (from here on “ADCC, Max killing (%), CCRF-CEM cells”) worked out at 25.7%. Also, the “median value (EasyCyte fluorescence)” value in experiment [2] was 179.

B2: B-1M22 IgG1 (antibody, V domains shown)
VH: QVQLVQSGAEVKKPGSSVKVSCKASGGTFSSYAISWVRQAPGQGLEWMGGIIPIFGTANYAQKFQGRVTITADESTSTAYMELRSLRSDDTAVYYCARDRERWLQSAGDYWGQGTLVTVSS
VL: QPVLTQSPSVSVAPGQTARITCGGNNIGSKSVHWYQQKPGQAPVLVVYDDSDRPSGIPERFSGSNSGNTATLTISRVEAGDEADYYCQVWDSSSDHWVFGGGTKLTVLG
notes: Full length human IgG1 with lambda light chain; expressed from pLNO, protein A purified, monomer by SEC; also called IgG B-1M22
For the molecule B2, in experiment [1], the “ADCC, EC50 (ng/mL), IgG” value is 116 ng/mL; the “ADCC, EC50, IgG, molar” value is 0.8 nM; the “ADCC, Max killing (%), CCRF-CEM cells” value was found to be 100%. Further, the “median value (EasyCyte fluorescence)” value in experiment [2] is 1080.

B3: C-1I24 IgG1 (antibody, V domains shown)
VH: QVQLVQSGGGVVQPGRSLRLSCAASGFTFSSYGMHWVRQAPGKGLEWVAVISYDGSNKYYADSVKGRFTISRDNSKNTLYLQMNSLRAEDTAVYYCAKDLPITRGTGADYWGQGTLVTVSS
VL: QSVLIQPASVSGSPGQSITISCTGTSSDVGGYNYVSWYQQHPGKAPRLMIYDVTSRPSGVSNRFSGSKSGNTASLTISGLQAEDEADYYCSSYAGSYSVVFGGGTKVTVLG
notes: Full length human IgG1 with lambda light chain; expressed from pLNO, protein A purified, monomer by SEC; also called IgG C-1I24; C-1124
Take B3: in experiment [1], the “ADCC, EC50 (ng/mL), IgG” value stood at 49.2 ng/mL; the “ADCC, EC50, IgG, molar” value stood at 0.3 nM; the “ADCC, Max killing (%), CCRF-CEM cells” value is 65%. Also, the “CDC of Ramos cells in presence of human serum, EC50, IgG” value in experiment [3] was 0.7 µg/mL. Moreover, in experiment [2], the “median value (EasyCyte fluorescence)” value was determined as 911.

B4: C-9P21 scFv (scFv)
scFv: QVQLQESGGGLVHPGGSLRLSCAASGFTFSSYWMHWVRQAPGKGLVWVSRINSDGSSTSYADSVKGRFTISRDNAKNTLYLQMNSLRAEDTAVYYCARKILGVGARSRRYFDYWGQGTMVTVSSKLSGSASAPKLEEGEFSEARVETTLTQSPGTLSLSPGERATLSCRASQSVVSNYLAWYQQKPGQAPRLLISGASNRATGISDRFSGSGSGADFTLTISRVEPEDSAVYYCQQFDKSTWTFGQGTKVEIKAAAGSEQKLISEEDLNSHHHHHH
notes: VH-linker-VL scFv expressed in E. coli TG1 from pHOG21; In the migration and ADCC assays it was cross-linked with anti-cMyc antibody; also called scFv C-9P21
Regarding B4, in experiment [1], the “ADCC, EC50 (ng/mL), scFv cross-linked with chimeric anti-cMyc IgG1” value was determined as 2.7 ng/mL and the “ADCC, EC50, scFv, molar” value worked out at 0.09 nM. Also, in experiment [3], the “IC50 of inhibition of SDF-1 induced migration of CCRF-CEM cells (Boyden chamber; scFv cross-linked with anti-cMyc)” value came out at 2.9 µg/mL and the “IC50 of inhibition of ligand induced migration of CCRF-CEM cells, molar” value is ~100 nM. Besides, the binding result in experiment [4] is reported as “binds”.

B5: 9N10 IgG1 (antibody, V domains shown)
VH: QVQLQESGGGLVHPGGSLRLSCAASGFTFSSYWMHWVRQAPGKGLVWVSRINSDGSSTSYADSVKGRFTISRDNAKNTLYLQMNSLRAEDTAVYYCARKILGVGARSRRYFDYWGQGTMVTVSS
VL: DIVLTQTPDSLAVSLGETTTINCKSSQSVLHSSNNKNYLAWYQQKPGQPPKLLIYWASTRESGVPDRFSGSGSGTDFTLTISNLQPEDVAFYYCLQYSTFPRTFGQGTKVEIKR
notes: Full length human IgG1 with kappa light chain
A word on the EC50 (read off the curve): it is the concentration that produces a half-maximal response. With B5, in experiment [3], the “IC50 of inhibition of SDF-1α induced calcium flux, CCRF-CEM cells, IgG” value worked out at 3.85 nM and the “fold efficiency in inhibition of calcium flux against C-9P21 IgG” value is ~8 fold. Moreover, in experiment [5], the “EC50 (read off the curve)” value was ~10 nM.

B6: C-9P21 IgG1 (antibody, V domains shown)
VH: B5 VH
VL: ETTLTQSPGTLSLSPGERATLSCRASQSVVSNYLAWYQQKPGQAPRLLISGASNRATGISDRFSGSGSGADFTLTISRVEPEDSAVYYCQQFDKSTWTFGQGTKVEIKR
notes: Full length human IgG1 with kappa light chain; expressed from pLNO, protein A purified, monomer by SEC; also called IgG C-9P21
As to B6, in experiment [1], the “ADCC, EC50 (ng/mL), IgG” value is 1850 ng/mL; the “ADCC, EC50, IgG, molar” value came out at 12.3 nM; the “ADCC, Max killing (%), CCRF-CEM cells” value was 63.5%. Moreover, the “IC50 of inhibition of SDF-1α induced calcium flux, CCRF-CEM cells, IgG” value in experiment [3] was determined as 29 nM. The “median value (EasyCyte fluorescence)” value in experiment [2] worked out at 626.

B7: B-1M22 scFv (scFv)
scFv: QVQLVQSGAEVKKPGSSVKVSCKASGGTFSSYAISWVRQAPGQGLEWMGGIIPIFGTANYAQKFQGRVTITADESTSTAYMELRSLRSDDTAVYYCARDRERWLQSAGDYWGQGTLVTVSSKLSGSASAPKLEEGEFSEARVQPVLTQSPSVSVAPGQTARITCGGNNIGSKSVHWYQQKPGQAPVLVVYDDSDRPSGIPERFSGSNSGNTATLTISRVEAGDEADYYCQVWDSSSDHWVFGGGTKLTVLAAAGSEQKLISEEDLNSHHHHHH
notes: VH-linker-VL scFv expressed in E. coli TG1 from pHOG21; also called scFv B-1M22
Take B7: the binding result in experiment [4] is “binds”.

B8: C-1I24 scFv (scFv)
scFv: QVQLVQSGGGVVQPGRSLRLSCAASGFTFSSYGMHWVRQAPGKGLEWVAVISYDGSNKYYADSVKGRFTISRDNSKNTLYLQMNSLRAEDTAVYYCAKDLPITRGTGADYWGQGTLVTVSSKLSGSASAPKLEEGEFSEARVQSVLIQPASVSGSPGQSITISCTGTSSDVGGYNYVSWYQQHPGKAPRLMIYDVTSRPSGVSNRFSGSKSGNTASLTISGLQAEDEADYYCSSYAGSYSVVFGGGTKVTVLAAAGSEQKLISEEDLNSHHHHHH
notes: VH-linker-VL scFv expressed in E. coli TG1 from pHOG21; also called scFv C-1I24; C-1124
B8: the binding result in experiment [4] and in experiment [6] was “binds” each time.

Values taken from patent US20160244527A1 (AFFITECH RESEARCH, published 2016).
